Among the data in article PMC6433916 are Ki and Kd values, retold here.

Data set [1] addresses T1, GST-C/EBPβ-bZIP (rat) (UniProt P21272).
T1 sequence: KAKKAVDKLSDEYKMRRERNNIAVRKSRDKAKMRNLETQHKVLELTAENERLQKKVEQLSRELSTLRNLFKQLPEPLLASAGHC
The experiment in a line: fluorescence anisotropy competition. As to conditions: 25 mM Tris-HCl pH 7.6, 75 mM NaCl, 150 mM KCl, 5 mM MgCl2, 0.1 mM DTT, 0.01% NP-40, room temperature, 20 min. (In general: Fluorescence polarisation rises when a labelled molecule tumbles more slowly, as on binding a larger partner.)

Data set [2] addresses T1, GST-C/EBPβ-bZIP (rat). The data set can be described thus: fluorescence anisotropy. The note with it: 25 mM Tris-HCl pH 7.6, 75 mM NaCl, 150 mM KCl, 5 mM MgCl2, 0.1 mM DTT, 0.01% NP-40, room temperature, 20 min.

As usually defined, the Ki is the equilibrium dissociation constant of an inhibitor or competing ligand from its target. Higher therefore signals weaker binding. By Kd is commonly meant the equilibrium constant for the complex coming apart. Lower therefore signals higher affinity.

“CCCTGATTGCAAAATAGGCTC (double strand) [BS2 competitor]” yielded an inhibitory constant (Ki) with GST-C/EBPβ-bZIP (rat) [1] of 0.066 µM. Turning to “CCCTGATTGCGCAATAGGCTC (double strand) [Consensus C/EBPβ competitor]”, in the data set with GST-C/EBPβ-bZIP (rat) [1] (vs 15 nM BS1 probe, 125 nM protein), the inhibitory constant (Ki) stood at 0.027 µM. In the data set with GST-C/EBPβ-bZIP (rat) [1], “CCCTGCTTACACAATAGGCTC (double strand) [BS1 competitor]” showed an inhibition constant Ki of 0.083 µM. Same read-out and setting: then “CCCTGCTTGCATAACAGGCTC (double strand) [HPV18 BS2L competitor]”, with 0.154 µM.

For “TTTGGCTTACACAATTGCTTT (double strand) [BS1 probe]”, in the data set with GST-C/EBPβ-bZIP (rat) [2], the Kd was found to be 0.062 µM.
